Patent US20130022541A1

How the values were obtained:
[1] = target: HLA-DR; assay: flow cytometry, surface, RL cells
[2] = target: HLA-DR; assay: flow cytometry, surface, CAG cells
[3] = target: HLA-DR; assay: flow cytometry, surface, U87 cells
[4] = target: HLA-DR; assay: flow cytometry, surface, HT29 cells
[5] = target: HLA-DR; assay: flow cytometry, surface, Lovo cells
[6] = target: HLA-DR; assay: flow cytometry, surface, U118 cells
[7] = target: HLA-DR; assay: flow cytometry, surface, FSCCL cells
[8] = target: HLA-DR; assay: flow cytometry, surface, KMS11 cells
[9] = target: HLA-DR; assay: flow cytometry, surface, Moser cells
[10] = target: HLA-DR; assay: flow cytometry, surface, TU118 cells
[11] = target: HLA-DR; assay: flow cytometry, surface, Aspc-1 cells
[12] = target: HLA-DR; assay: flow cytometry, surface, BxPC-3 cells
[13] = target: HLA-DR; assay: flow cytometry, surface, LS174T cells
[14] = target: HLA-DR; assay: flow cytometry, surface, Panc-1 cells
[15] = target: HLA-DR; assay: flow cytometry, surface, Capan-1 cells
[16] = target: HLA-DR; assay: flow cytometry, surface, RL cells + IFN-γ
[17] = target: HLA-DR; assay: flow cytometry, surface, CAG cells + IFN-γ
[18] = target: HLA-DR; assay: flow cytometry, surface, U87 cells + IFN-γ
[19] = target: HLA-DR; assay: flow cytometry, surface, HT29 cells + IFN-γ
[20] = target: HLA-DR; assay: flow cytometry, surface, Lovo cells + IFN-γ
[21] = target: HLA-DR; assay: flow cytometry, surface, U118 cells + IFN-γ
[22] = target: HLA-DR; assay: flow cytometry, surface, Capan cells + IFN-γ
[23] = target: HLA-DR; assay: flow cytometry, surface, FSCCL cells + IFN-γ
[24] = target: HLA-DR; assay: flow cytometry, surface, KMS11 cells + IFN-γ
[25] = target: HLA-DR; assay: flow cytometry, surface, Moser cells + IFN-γ
[26] = target: HLA-DR; assay: flow cytometry, surface, TU118 cells + IFN-γ
[27] = target: HLA-DR; assay: flow cytometry, surface, Aspc-1 cells + IFN-γ
[28] = target: HLA-DR; assay: flow cytometry, surface, BxPC-3 cells + IFN-γ
[29] = target: HLA-DR; assay: flow cytometry, surface, LS174T cells + IFN-γ
[30] = target: HLA-DR; assay: flow cytometry, surface, Panc-1 cells + IFN-γ
[31] = target: HLA-DR; assay: flow cytometry, permeabilized (cytoplasmic), RL cells
[32] = target: HLA-DR; assay: flow cytometry, permeabilized (cytoplasmic), CAG cells
[33] = target: HLA-DR; assay: flow cytometry, permeabilized (cytoplasmic), U87 cells
[34] = target: HLA-DR; assay: flow cytometry, permeabilized (cytoplasmic), HT29 cells
[35] = target: HLA-DR; assay: flow cytometry, permeabilized (cytoplasmic), Lovo cells
[36] = target: HLA-DR; assay: flow cytometry, permeabilized (cytoplasmic), U118 cells
[37] = target: HLA-DR; assay: flow cytometry, permeabilized (cytoplasmic), FSCCL cells
[38] = target: HLA-DR; assay: flow cytometry, permeabilized (cytoplasmic), KMS11 cells
[39] = target: HLA-DR; assay: flow cytometry, permeabilized (cytoplasmic), Moser cells
[40] = target: HLA-DR; assay: flow cytometry, permeabilized (cytoplasmic), TU118 cells
[41] = target: HLA-DR; assay: flow cytometry, permeabilized (cytoplasmic), Aspc-1 cells
[42] = target: HLA-DR; assay: flow cytometry, permeabilized (cytoplasmic), BxPC-3 cells
[43] = target: HLA-DR; assay: flow cytometry, permeabilized (cytoplasmic), LS174T cells
[44] = target: HLA-DR; assay: flow cytometry, permeabilized (cytoplasmic), Panc-1 cells
[45] = target: HLA-DR; assay: flow cytometry, permeabilized (cytoplasmic), Capan-1 cells
[46] = target: HLA-DR; assay: flow cytometry, permeabilized (cytoplasmic), RL cells + IFN-γ
[47] = target: HLA-DR; assay: flow cytometry, permeabilized (cytoplasmic), CAG cells + IFN-γ
[48] = target: HLA-DR; assay: flow cytometry, permeabilized (cytoplasmic), U87 cells + IFN-γ
[49] = target: HLA-DR; assay: flow cytometry, permeabilized (cytoplasmic), HT29 cells + IFN-γ
[50] = target: HLA-DR; assay: flow cytometry, permeabilized (cytoplasmic), Lovo cells + IFN-γ
[51] = target: HLA-DR; assay: flow cytometry, permeabilized (cytoplasmic), U118 cells + IFN-γ
[52] = target: HLA-DR; assay: flow cytometry, permeabilized (cytoplasmic), Capan cells + IFN-γ
[53] = target: HLA-DR; assay: flow cytometry, permeabilized (cytoplasmic), FSCCL cells + IFN-γ
[54] = target: HLA-DR; assay: flow cytometry, permeabilized (cytoplasmic), KMS11 cells + IFN-γ
[55] = target: HLA-DR; assay: flow cytometry, permeabilized (cytoplasmic), Moser cells + IFN-γ
[56] = target: HLA-DR; assay: flow cytometry, permeabilized (cytoplasmic), TU118 cells + IFN-γ
[57] = target: HLA-DR; assay: flow cytometry, permeabilized (cytoplasmic), Aspc-1 cells + IFN-γ
[58] = target: HLA-DR; assay: flow cytometry, permeabilized (cytoplasmic), BxPC-3 cells + IFN-γ
[59] = target: HLA-DR; assay: flow cytometry, permeabilized (cytoplasmic), LS174T cells + IFN-γ
[60] = target: HLA-DR; assay: flow cytometry, permeabilized (cytoplasmic), Panc-1 cells + IFN-γ

B1: hL243γ4P (anti-HLA-DR) (antibody, from a related filing, V domains shown)
VH: QVQLQQSGSELKKPGASVKVSCKASGFTFTNYGMNWVKQAPGQGLKWMGWINTYTREPTYADDFKGRFAFSLDTSVSTAYLQISSLKADDTAVYFCARDITAVVPTGFDYWGQGSLVTVSS
VL: DIQLTQSPSSLSASVGDRVTITCRASENIYSNLAWYRQKPGKAPKLLVFAASNLADGVPSRFSGSGSGTDYTFTISSLQPEDIATYYCQHFWTTPWAFGGGTKLQIKR
flow cytometry fluorescence [1]: 750
flow cytometry fluorescence [2]: 1930
flow cytometry fluorescence [3]: 41.9
flow cytometry fluorescence [4]: 3.3
flow cytometry fluorescence [5]: 7.3
flow cytometry fluorescence [6]: 6.1
flow cytometry fluorescence [7]: 1090
flow cytometry fluorescence [8]: 677
flow cytometry fluorescence [9]: 4
flow cytometry fluorescence [10]: 5.08
flow cytometry fluorescence [11]: 3.2
flow cytometry fluorescence [12]: 2.3
flow cytometry fluorescence [13]: 5.3
flow cytometry fluorescence [14]: 4.3
flow cytometry fluorescence [15]: 5.5
flow cytometry fluorescence [16]: 862
flow cytometry fluorescence [17]: 1810
flow cytometry fluorescence [18]: 172
flow cytometry fluorescence [19]: 298
flow cytometry fluorescence [20]: 276
flow cytometry fluorescence [21]: 197
flow cytometry fluorescence [22]: 66.2
flow cytometry fluorescence [23]: 1610
flow cytometry fluorescence [24]: 665
flow cytometry fluorescence [25]: 8.5
flow cytometry fluorescence [26]: 93.5
flow cytometry fluorescence [27]: 15.2
flow cytometry fluorescence [28]: 43.8
flow cytometry fluorescence [29]: 4.7
flow cytometry fluorescence [30]: 4.7
flow cytometry fluorescence [31]: 1060
flow cytometry fluorescence [32]: 2320
flow cytometry fluorescence [33]: 102
flow cytometry fluorescence [34]: 9.1
flow cytometry fluorescence [35]: 32.5
flow cytometry fluorescence [36]: 24.6
flow cytometry fluorescence [37]: 1470
flow cytometry fluorescence [38]: 879
flow cytometry fluorescence [39]: 18.2
flow cytometry fluorescence [40]: 23.6
flow cytometry fluorescence [41]: 11
flow cytometry fluorescence [42]: 14.2
flow cytometry fluorescence [43]: 23.4
flow cytometry fluorescence [44]: 22.7
flow cytometry fluorescence [45]: 11.6
flow cytometry fluorescence [46]: 1180
flow cytometry fluorescence [47]: 2420
flow cytometry fluorescence [48]: 429
flow cytometry fluorescence [49]: 638
flow cytometry fluorescence [50]: 989
flow cytometry fluorescence [51]: 352
flow cytometry fluorescence [52]: 253
flow cytometry fluorescence [53]: 2520
flow cytometry fluorescence [54]: 927
flow cytometry fluorescence [55]: 40.5
flow cytometry fluorescence [56]: 215
flow cytometry fluorescence [57]: 73.6
flow cytometry fluorescence [58]: 130
flow cytometry fluorescence [59]: 42.3
flow cytometry fluorescence [60]: 64.1
